1 molecule from PMC2629542 (The Journal of biological chemistry, 2006) can be followed below.

Usually Kd stands for the concentration at which binding is half-saturated.

For this experiment, the target named is Dr hemagglutinin (DraE) adhesin, Dr fimbriae (E. coli). As to the kind of experiment: SPR. A general note: SPR reads the build-up and loss of mass on a sensor chip optically.

B1: N-domain of CEACAM6 (domain or fragment)
chain: KLTIESTPFNVAEGKEVLLLAHNLPQNRIGYSWYKGERVDGNSLIVGYVIGTQQATPGPAYSGRETIYPNASLLIQNVTQNDTGFYTLQVIKSDLVNEEATGQFHVYPEL
As to B1, the Kd was 30.1 µM.
